Assay results reported in paper PMC8686788 (Science (New York, N.Y.), 2021).
Positions count from the first letter of the chain named. In names and notes the source's numbering stands. Where two headings read alike, the source gives them in different places.

How the values were obtained:
Assay in all cases: fluorescence polarisation
KaiC [1] = target: T1, KaiC (Synechococcus elongatus, UniProt Q79PF4 1-519)
T1 sequence (looked up): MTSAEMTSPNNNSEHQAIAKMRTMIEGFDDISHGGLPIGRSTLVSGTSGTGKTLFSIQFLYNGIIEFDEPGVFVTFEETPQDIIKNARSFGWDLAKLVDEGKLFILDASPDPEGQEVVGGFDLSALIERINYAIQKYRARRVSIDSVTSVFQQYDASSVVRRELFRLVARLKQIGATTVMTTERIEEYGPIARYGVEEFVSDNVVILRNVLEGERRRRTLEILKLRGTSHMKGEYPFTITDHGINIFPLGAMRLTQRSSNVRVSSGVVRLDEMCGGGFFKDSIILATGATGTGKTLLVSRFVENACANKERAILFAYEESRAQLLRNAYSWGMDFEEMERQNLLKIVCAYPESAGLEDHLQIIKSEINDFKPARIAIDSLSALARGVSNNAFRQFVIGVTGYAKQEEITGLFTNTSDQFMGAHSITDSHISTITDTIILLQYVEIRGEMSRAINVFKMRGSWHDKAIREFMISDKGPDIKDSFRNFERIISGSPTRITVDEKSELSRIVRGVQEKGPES

KaiC [2] = target: T1, KaiC; remark: listed apart in the source
KaiC-EA = target: T2, KaiC-EA (Synechococcus elongatus, UniProt Q79PF4 1-519, S431E (KaiC-EA) | T432A (KaiC-EA))
T2 sequence (looked up): T1 sequence (looked up) with S431E, T432A

[3] = target: T3, circadian input kinase A, CikA (Synechococcus elongatus, UniProt Q9KHI5 1-754, fluorescent probe attached by sortase A-mediated ligation)
T3 sequence (looked up): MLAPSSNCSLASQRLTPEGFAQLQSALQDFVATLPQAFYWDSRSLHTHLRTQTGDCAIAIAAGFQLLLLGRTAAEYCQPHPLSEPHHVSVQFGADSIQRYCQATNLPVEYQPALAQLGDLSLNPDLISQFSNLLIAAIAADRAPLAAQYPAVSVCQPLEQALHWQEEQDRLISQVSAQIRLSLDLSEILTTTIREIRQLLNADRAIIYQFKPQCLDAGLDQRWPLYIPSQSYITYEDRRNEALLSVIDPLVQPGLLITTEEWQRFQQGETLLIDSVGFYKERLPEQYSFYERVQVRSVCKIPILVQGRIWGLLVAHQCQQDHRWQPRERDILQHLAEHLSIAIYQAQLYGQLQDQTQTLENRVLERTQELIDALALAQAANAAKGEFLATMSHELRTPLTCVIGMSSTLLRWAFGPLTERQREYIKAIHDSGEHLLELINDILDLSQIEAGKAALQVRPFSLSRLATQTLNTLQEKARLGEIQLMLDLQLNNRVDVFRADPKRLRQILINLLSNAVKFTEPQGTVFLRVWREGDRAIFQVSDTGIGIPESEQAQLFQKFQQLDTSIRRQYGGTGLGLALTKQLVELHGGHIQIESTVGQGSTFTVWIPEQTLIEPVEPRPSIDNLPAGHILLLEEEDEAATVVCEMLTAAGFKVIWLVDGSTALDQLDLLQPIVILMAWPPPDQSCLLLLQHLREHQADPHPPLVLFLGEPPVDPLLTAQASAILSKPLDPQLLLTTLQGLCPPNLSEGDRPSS

B1: KaiA (natural protein, Synechococcus elongatus, UniProt Q79PF6 1-284, looked up)
chain: MLSQIAICIWVESTAILQDCQRALSADRYQLQVCESGEMLLEYAQTHRDQIDCLILVAANPSFRAVVQQLCFEGVVVPAIVVGDRDSEDPDEPAKEQLYHSAELHLGIHQLEQLPYQVDAALAEFLRLAPVETMADHIMLMGANHDPELSSQQRDLAQRLQERLGYLGVYYKRDPDRFLRNLPAYESQKLHQAMQTSYREIVLSYFSPNSNLNQSIDNFVNMAFFADVPVTKVVEIHMELMDEFAKKLRVEGRSEDILLDYRLTLIDVIAHLCEMYRRSIPRET
modifications: fluorescent probe attached by sortase A-mediated ligation
**Q.** Does B1 bind (KaiC [1])?
**A.** Result: binds

B2: SasA-H28A-Q94A (enzyme, Synechococcus elongatus, UniProt Q06904 1-387, looked up)
chain: MGESLSPQALAQPLLLQLFVDTRPLSQAIVQRVKNILAAVEATVPISLQVINVADQPQLVEYYRLVVTPALVKIGPGSRQVLSGIDLTDQLANALPQWLVQQEAFFADREPPEVNIPFTELGQPETPALQQADAFFQLQQQYADLSERTKFLEQVIALVAHDLRNPLTAALLAVDTIQIRSQSFSVATAKEMQGLCSLFDQARSQLREIERMIAEILEATRHSGESLRINPREVVFEPLLQQVLEQLHERWRSKQQQLITDVPGDLPTLYADPDRLRQVLVNLLDNAIKYTPPGGTITIAALHRTSQKVQISISDTGSGIPRDQLSVIFKNLVRLSRDSSQEGYGIGLSVCQRIVQAHFGRIWVASELGQGSTFHFTMPVYRYTMPC
**Q.** Does B2 bind (KaiC [2])?
**A.** Result: binds

B3: KaiB (natural protein, Synechococcus elongatus, UniProt Q79PF5 1-102, looked up)
chain: MSPRKTYILKLYVAGNTPNSVRALKTLKNILEVEFQGVYALKVIDVLKNPQLAEEDKILATPTLAKVLPLPVRRIIGDLSDREKVLIGLDLLYGELQDSDDF
modifications: fluorescent probe attached by sortase A-mediated ligation
**Q.** Does B3 bind (KaiC [1])?
**A.** Result: binds

**Q.** Does B3 bind (KaiC-EA)?
**A.** Result: binds

B4: KaiB-KaiC complex (complex, Synechococcus elongatus)
chain 1: B3 chain
chain 2: T1 sequence (looked up)
**Q.** Does B4 bind [3]?
**A.** Result: binds
